Data on one variant can be found in IntAct's records for PubMed 18786923.

B1: Complement factor H (Homo sapiens), P08603 (parent)
chain: MRLLAKIICLMLWAICVAEDCNELPPRRNTEILTGSWSDQTYPEGTQAIYKCRPGYRSLGNVIMVCRKGEWVALNPLRKCQKRPCGHPGDTPFGTFTLTGGNVFEYGVKAVYTCNEGYQLLGEINYRECDTDGWTNDIPICEVVKCLPVTAPENGKIVSSAMEPDREYHFGQAVRFVCNSGYKIEGDEEMHCSDDGFWSKEKPKCVEISCKSPDVINGSPISQKIIYKENERFQYKCNMGYEYSERGDAVCTESGWRPLPSCEEKSCDNPYIPNGDYSPLRIKHRTGDEITYQCRNGFYPATRGNTAKCTSTGWIPAPRCTLKPCDYPDIKHGGLYHENMRRPYFPVAVGKYYSYYCDEHFETPSGSYWDHIHCTQDGWSPAVPCLRKCYFPYLENGYNQNYGRKFVQGKSIDVACHPGYALPKAQTTVTCMENGWSPTPRCIRVKTCSKSSIDIENGFISESQYTYALKEKAKYQCKLGYVTADGETSGSITCGKDGWSAQPTCIKSCDIPVFMNARTKNDFTWFKLNDTLDYECHDGYESNTGSTTGSIVCGYNGWSDLPICYERECELPKIDVHLVPDRKKDQYKVGEVLKFSCKPGFTIVGPNSVQCYHFGLSPDLPICKEQVQSCGPPPELLNGNVKEKTKEEYGHSEVVEYYCNPRFLMKGPNKIQCVDGEWTTLPVCIVEESTCGDIPELEHGWAQLSSPPYYYGDSVEFNCSESFTMIGHRSITCIHGVWTQLPQCVAIDKLKKCKSSNLIILEEHLKNKKEFDHNSNIRYRCRGKEGWIHTVCINGRWDPEVNCSMAQIQLCPPPPQIPNSHNMTTTLNYRDGEKVSVLCQENYLIQEGEEITCKDGRWQSIPLCVEKIPCSQPPQIEHGTINSSRSSQESYAHGTKLSYTCEGGFRISEENETTCYMGKWSSPPQCEGLPCKSPPEISHGVVAHMSDSYQYGEEVTYKCFEGFGIDGPAIAKCLGEKWSHPPSCIKTDCLSLPSFENAIPMGEKKDVYKAGEQVTYTCATYYKMDGASNVTCINSRWTGRPTCRDTSCVNPPTVQNAYIVSRQMSKYPSGERVRYQCRSPYEMFGDEEVMCLNGNWTEPPQCKDSTGKCGPPPPIDNGDITSFPLSVYAPASSVEYQCQNLYQLEGNKRITCRNGQWSEPPKCLHPCVISREIMENYNIALRWTAKQKLYSRTGESVEFVCKRGYRLSSRSHTLRTTCWDGKLEYPTCAKR
partner: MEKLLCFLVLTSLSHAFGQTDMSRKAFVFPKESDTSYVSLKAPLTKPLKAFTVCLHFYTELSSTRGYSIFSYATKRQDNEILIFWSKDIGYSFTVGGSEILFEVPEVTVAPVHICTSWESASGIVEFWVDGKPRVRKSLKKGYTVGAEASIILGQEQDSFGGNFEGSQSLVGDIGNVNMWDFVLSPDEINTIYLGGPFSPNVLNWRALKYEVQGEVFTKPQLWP

One assay covers variants of B1. As to conditions: with crp_human CRP.
On to Y402H, for which the “effect of a mutation on the interaction” value was “with no effect”.

Variants of B1 are the subject of the next assay. As to conditions: with crp_human CRP. This is another data set of the same source.
With Y402H, the “effect of a mutation on the interaction” value is “decreasing interaction strength”.
